Laboratory results published in US11752213B2, “Surfaces having reduced non-specific binding and antigenicity” (Duke University, priority 2015, dated 2023).

System: IgG Ab to PEG in patient plasma
Experiment: Indirect ELISA detection of APAs in patient plasma against Adagen-coated plates
Format: binding, human
Settings: 5 replicates
Protocol: Informed signed consent was obtained from either the patient or from next of kin. (A) ELISA detection of APAs: Plasma samples diluted 1:21 in 1% BSA in PBS were tested by ELISA for IgG Ab to PEG, but using Adagen® (Sigma Tau Pharmaceuticals, Gaithersburg, Md.) rather than Krystexxa® as the antigen. (B) Surface fluoroimmunoassay against patient APAs: Polymer-coated surfaces were incubated with patient plasma samples diluted 1:3 in PBS for 1 h, and then washed 3 times with wash buffer (0.5% CHAPS in PBS). Next, the surfaces were exposed to a 1 μg/mL solution of Cy5-goat-anti-human IgG detection Ab (R & D Systems, Inc.) for 30 min. Surfaces were then rinsed again to remove any loosely-bound proteins, centrifuged at 4800 rpm for 15 s to wick away excess liquid, then allowed to dry under ambient conditions. Fluorescence imaging and analysis of all samples was performed using an Axon Genepix 4400 tabletop scanner and ImageJ Fiji as described above.
We performed an indirect ELISA on these patient plasma samples to quantify the level of IgG binding to Adagen (PEGylated adenosine deaminase).

B1: ADAGEN: a PEGylated adenosine deaminase for treating severe combined immunodeficiency disease (SCID) (conjugate)
chain: AQTPAFNKPKVELHVHLDGAIKPETILYYGRKRGIALPADTPEELQNIIGMDKPLSLPEFLAKFDYYMPAIAGCREAVKRIAYEFVEMKAKDGVVYVEVRYSPHLLANSKVEPIPWNQAEGDLTPDEVVSLVNQGLQEGERDFGVKVRSILCCMRHQPSWSSEVVELCKKYREQTVVAIDLAGDETIEGSSLFPGHVKAYAEAVKSGVHRTVHAGEVGSANVVKEAVDTLKTERLGHGYHTLEDATLYNRLRQENMHFEVCPWSSYLTGAWKPDTEHPVVRFKNDQVNYSLNTDDPLIFKSTLDTDYQMTKNEMGFTEEEFKRLNINAAKSSFLPEDEKKELLDLLYKAYGMPSPA
In the case of B1, the “OD 405 nm Avg” value (Pt# 1, APA neg, sample 929-237-01) is reported as 0.149, the “OD 405 nm Avg” value (Pt# 2, APA pos, sample 929-219-07) is reported as 0.714 and the “OD 405 nm Avg” value (Pt# 3, APA pos, sample 929-237-12) is reported as 1.243. For the same molecule, the “OD 405 nm Avg” value (Pt# 4, APA pos, sample 929-241-07) was 1.679 and the “OD 405 nm Avg” value (Pt# 5, APA pos, sample 929-218-21) was 3.059.
